Data as given in US20040203002.
Read-outs that look alike come from different tables or passages of the source.

Key:
[1] = molecular target: Zif268 finger 2 variant REDV finger 2 alpha-helix variant REDV (full helix only in FIG. 1D) (Mus musculus) (UniProt P08046); settings: [none]
[2] = molecular target: Zif268 finger 2 variant RGPD finger 2 alpha-helix variant RGPD (full helix only in FIG. 1D) (Mus musculus) (UniProt P08046); settings: [none]
[3] = molecular target: Zif268 finger 2 variant LRHN finger 2 alpha-helix variant LRHN (full helix only in FIG. 1D) (Mus musculus) (UniProt P08046); settings: [none]
[4] = molecular target: Zif268 finger 2 variant RGPD finger 2 alpha-helix variant RGPD (full helix only in FIG. 1D) (Mus musculus) (UniProt P08046); assay: ELONA; settings: [none]; apparent Kd, phage ELISA, PBS/Zn, RT
[5] = molecular target: Zif268 wildtype (three zinc fingers, phage displayed) (Mus musculus) (UniProt P08046); assay: ELONA; settings: apparent non-equilibrium Kd, phage ELISA, all values scaled to this one (3.0 nM); PBS/Zn, milk, Tween 20, salmon testes DNA, RT
[6] = molecular target: Zif268 finger 2 variant LRHN finger 2 alpha-helix variant LRHN (full helix only in FIG. 1D) (Mus musculus) (UniProt P08046); assay: ELONA; settings: [none]; apparent Kd, phage ELISA, PBS/Zn, RT
[7] = molecular target: Zif268 finger 2 variant KASN finger 2 alpha-helix variant KASN (full helix only in FIG. 1D) (Mus musculus) (UniProt P08046); assay: ELONA; settings: [none]; apparent Kd, phage ELISA, PBS/Zn, RT
[8] = molecular target: Zif268 finger 2 variant KASN finger 2 alpha-helix variant KASN (full helix only in FIG. 1D) (Mus musculus) (UniProt P08046); settings: [none]
[9] = molecular target: Zif268 finger 2 variant REDV finger 2 alpha-helix variant REDV (full helix only in FIG. 1D) (Mus musculus) (UniProt P08046); assay: ELONA; settings: [none]; apparent Kd, phage ELISA, PBS/Zn, RT
[10] = apparent Kd interpolated from microarray signal 0.063
[11] = apparent Kd interpolated from microarray signal 0.122

Sequence: TATATAGCGGAGGCGTATATATCAAGTCAATCGGTCC (double strand) [Zif268 site GAG]
- Kd ([1]; apparent Kd interpolated from microarray signal 0.120): 690 nM
- Kd ([2]; apparent Kd interpolated from microarray signal 0.151): 670 nM

Sequence: TATATAGCGTACGCGTATATATCAAGTCAATCGGTCC (double strand) [Zif268 site TAC]
- Kd ([3]; apparent Kd interpolated from microarray signal 0.329): 170 nM

Sequence: TATATAGCGGCCGCGTATATATCAAGTCAATCGGTCC (double strand) [Zif268 site GCC]
- Kd [4]: 600 nM
- Kd ([1]; apparent Kd interpolated from microarray signal 0.084): 1500 nM

Sequence: TATATAGCGTGGGCGTATATATCAAGTCAATCGGTCC (double strand) [Zif268 site TGG]
- Kd [5]: 3 nM

Sequence: TATATAGCGCATGCGTATATATCAAGTCAATCGGTCC (double strand) [Zif268 site CAT]
- Kd [6]: 120 nM

Sequence: TATATAGCGTATGCGTATATATCAAGTCAATCGGTCC (double strand) [Zif268 site TAT]
- Kd [7]: 270 nM
- Kd [6]: 6.3 nM

Sequence: TATATAGCGCGTGCGTATATATCAAGTCAATCGGTCC (double strand) [Zif268 site CGT]
- Kd ([8]; apparent Kd interpolated from microarray signal 0.848): 330 nM
- Kd ([3]; apparent Kd interpolated from microarray signal 0.330): 170 nM

Sequence: TATATAGCGGACGCGTATATATCAAGTCAATCGGTCC (double strand) [Zif268 site GAC]
- Kd ([8]; apparent Kd interpolated from microarray signal 0.652): 1300 nM

Sequence: TATATAGCGATGGCGTATATATCAAGTCAATCGGTCC (double strand) [Zif268 site ATG]
- Kd ([1]; apparent Kd interpolated from microarray signal 0.069): 1600 nM
- Kd ([2]; apparent Kd interpolated from microarray signal 0.136): 720 nM

Sequence: TATATAGCGCGGGCGTATATATCAAGTCAATCGGTCC (double strand) [Zif268 site CGG]
- Kd [7]: 1460 nM

Sequence: TATATAGCGGTGGCGTATATATCAAGTCAATCGGTCC (double strand) [Zif268 site GTG]
- Kd [9]: 11 nM
- Kd ([2]; apparent Kd interpolated from microarray signal 0.175): 610 nM

Sequence: TATATAGCGCAGGCGTATATATCAAGTCAATCGGTCC (double strand) [Zif268 site CAG]
- Kd ([1]; apparent Kd interpolated from microarray signal 0.056): 1800 nM
- Kd ([2]; apparent Kd interpolated from microarray signal 0.105): 820 nM

Sequence: TATATAGCGATTGCGTATATATCAAGTCAATCGGTCC (double strand) [Zif268 site ATT]
- Kd [6]: 240 nM
- Kd ([8]; apparent Kd interpolated from microarray signal 0.942): 270 nM

Sequence: TATATAGCGAATGCGTATATATCAAGTCAATCGGTCC (double strand) [Zif268 site AAT]
- Kd [7]: 250 nM
- Kd [6]: 110 nM

Sequence: TATATAGCGGGCGCGTATATATCAAGTCAATCGGTCC (double strand) [Zif268 site GGC]
- Kd ([8]; apparent Kd interpolated from microarray signal 0.636): 1400 nM

Sequence: TATATAGCGTGTGCGTATATATCAAGTCAATCGGTCC (double strand) [Zif268 site TGT]
- Kd ([8]; apparent Kd interpolated from microarray signal 0.856): 320 nM
- Kd ([3]; apparent Kd interpolated from microarray signal 0.384): 130 nM

Sequence: TATATAGCGGATGCGTATATATCAAGTCAATCGGTCC (double strand) [Zif268 site GAT]
- Kd ([3]; apparent Kd interpolated from microarray signal 0.500): 72 nM

Sequence: TATATAGCGCGCGCGTATATATCAAGTCAATCGGTCC (double strand) [Zif268 site CGC]
- Kd ([8]; apparent Kd interpolated from microarray signal 0.774): 390 nM

Sequence: TATATAGCGACGGCGTATATATCAAGTCAATCGGTCC (double strand) [Zif268 site ACG]
- Kd [1, 10]: 1700 nM
- Kd ([2]; apparent Kd interpolated from microarray signal 0.143): 690 nM

Sequence: TATATAGCGGCTGCGTATATATCAAGTCAATCGGTCC (double strand) [Zif268 site GCT]
- Kd ([1]; apparent Kd interpolated from microarray signal 0.077): 1600 nM
- Kd ([2]; apparent Kd interpolated from microarray signal 0.406): 220 nM

Sequence: TATATAGCGTAGGCGTATATATCAAGTCAATCGGTCC (double strand) [Zif268 site TAG]
- Kd [7]: 390 nM
- Kd [6]: 110 nM

Sequence: TATATAGCGGGTGCGTATATATCAAGTCAATCGGTCC (double strand) [Zif268 site GGT]
- Kd ([8]; apparent Kd interpolated from microarray signal 0.616): 1600 nM
- Kd ([3]; apparent Kd interpolated from microarray signal 0.238): 260 nM

Sequence: TATATAGCGTCTGCGTATATATCAAGTCAATCGGTCC (double strand) [Zif268 site TCT]
- Kd ([1]; apparent Kd interpolated from microarray signal 0.083): 1500 nM
- Kd ([2]; apparent Kd interpolated from microarray signal 0.146): 690 nM

Sequence: TATATAGCGCCCGCGTATATATCAAGTCAATCGGTCC (double strand) [Zif268 site CCC]
- Kd [1, 10]: 1700 nM
- Kd ([2]; apparent Kd interpolated from microarray signal 0.119): 770 nM

Sequence: TATATAGCGCTCGCGTATATATCAAGTCAATCGGTCC (double strand) [Zif268 site CTC]
- Kd ([1]; apparent Kd interpolated from microarray signal 0.058): 1800 nM
- Kd [2, 11]: 760 nM

Sequence: TATATAGCGAGTGCGTATATATCAAGTCAATCGGTCC (double strand) [Zif268 site AGT]
- Kd ([8]; apparent Kd interpolated from microarray signal 0.862): 320 nM
- Kd ([3]; apparent Kd interpolated from microarray signal 0.449): 93 nM

Sequence: TATATAGCGCCGGCGTATATATCAAGTCAATCGGTCC (double strand) [Zif268 site CCG]
- Kd [9]: 880 nM
- Kd [4]: 250 nM

Sequence: TATATAGCGCCTGCGTATATATCAAGTCAATCGGTCC (double strand) [Zif268 site CCT]
- Kd ([8]; apparent Kd interpolated from microarray signal 0.974): 250 nM
- Kd ([3]; apparent Kd interpolated from microarray signal 0.298): 200 nM

Sequence: TATATAGCGGCGGCGTATATATCAAGTCAATCGGTCC (double strand) [Zif268 site GCG]
- Kd [9]: 11 nM
- Kd [4]: 17 nM

Sequence: TATATAGCGACTGCGTATATATCAAGTCAATCGGTCC (double strand) [Zif268 site ACT]
- Kd ([8]; apparent Kd interpolated from microarray signal 0.949): 260 nM
- Kd ([3]; apparent Kd interpolated from microarray signal 0.342): 160 nM

Sequence: TATATAGCGGCAGCGTATATATCAAGTCAATCGGTCC (double strand) [Zif268 site GCA]
- Kd ([1]; apparent Kd interpolated from microarray signal 0.108): 1300 nM
- Kd ([2]; apparent Kd interpolated from microarray signal 0.216): 510 nM

Sequence: TATATAGCGGGGGCGTATATATCAAGTCAATCGGTCC (double strand) [Zif268 site GGG]
- Kd [1, 11]: 1100 nM
- Kd ([2]; apparent Kd interpolated from microarray signal 0.118): 770 nM
- Kd ([8]; apparent Kd interpolated from microarray signal 0.612): 1700 nM

Sequence: TATATAGCGGAAGCGTATATATCAAGTCAATCGGTCC (double strand) [Zif268 site GAA]
- Kd ([8]; apparent Kd interpolated from microarray signal 0.697): 1000 nM
